Series [1] concerns the target T1, RTCB–PYROXD1 complex (Homo sapiens, UniProt Q8WU10).
T1 construct: PYROXD1 (GST cut, E. coli) with RTCB (N-terminal tag cut by TEV, Sf9); 1:1 complex with Mg2+ in RTCB; with RNA-splicing ligase RtcB homolog
T1 sequence (Q8WU10 1-500): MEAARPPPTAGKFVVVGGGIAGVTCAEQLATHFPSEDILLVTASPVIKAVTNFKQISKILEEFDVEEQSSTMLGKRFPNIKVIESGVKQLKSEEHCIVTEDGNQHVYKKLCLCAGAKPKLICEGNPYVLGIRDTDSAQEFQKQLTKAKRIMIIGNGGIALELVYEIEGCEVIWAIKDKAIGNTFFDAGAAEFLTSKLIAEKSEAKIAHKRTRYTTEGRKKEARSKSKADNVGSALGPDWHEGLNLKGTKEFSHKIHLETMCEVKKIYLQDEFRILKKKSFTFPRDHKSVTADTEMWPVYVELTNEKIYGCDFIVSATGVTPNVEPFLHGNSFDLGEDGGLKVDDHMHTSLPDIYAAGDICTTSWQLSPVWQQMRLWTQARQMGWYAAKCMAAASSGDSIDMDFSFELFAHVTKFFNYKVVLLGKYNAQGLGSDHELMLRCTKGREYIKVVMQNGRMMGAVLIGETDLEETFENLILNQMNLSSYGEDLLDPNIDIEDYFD
T1 sequence (Q9Y3I0 1-505 partner): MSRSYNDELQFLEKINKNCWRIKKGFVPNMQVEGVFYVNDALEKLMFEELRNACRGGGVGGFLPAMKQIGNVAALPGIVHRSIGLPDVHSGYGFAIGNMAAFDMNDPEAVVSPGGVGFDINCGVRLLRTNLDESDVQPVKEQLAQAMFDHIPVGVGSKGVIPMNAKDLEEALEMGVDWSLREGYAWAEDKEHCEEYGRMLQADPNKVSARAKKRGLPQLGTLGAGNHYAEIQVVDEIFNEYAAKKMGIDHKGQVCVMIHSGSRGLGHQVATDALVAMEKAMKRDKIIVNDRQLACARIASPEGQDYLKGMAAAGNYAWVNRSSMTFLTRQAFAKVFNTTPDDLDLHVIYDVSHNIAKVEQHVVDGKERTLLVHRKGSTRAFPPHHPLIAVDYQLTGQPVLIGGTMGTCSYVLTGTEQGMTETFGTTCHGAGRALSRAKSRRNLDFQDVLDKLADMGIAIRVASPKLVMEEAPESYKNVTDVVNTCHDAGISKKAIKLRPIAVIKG
Kind of series: cryo-EM structure, […] Å. Type of series: binding. The conditions noted are these: prepared with 0.5 mM NADH, 5 mM MgCl2, pH 8.0, redox state NAD+ inferred (charge-transfer complex), PYROXD1 active site.

For series [2], the target named is T2, RTCB (with Archease) (Homo sapiens, UniProt Q9Y3I0).
T2 construct: RTCB, N-terminal tag cut by TEV, Sf9; Archease residues 27-168, His6-MBP cut, E. coli; with Protein archease
T2 sequence (Q9Y3I0 1-505): T1 sequence (Q9Y3I0 1-505 partner)
T2 sequence (Q8IWT0 27-167 partner): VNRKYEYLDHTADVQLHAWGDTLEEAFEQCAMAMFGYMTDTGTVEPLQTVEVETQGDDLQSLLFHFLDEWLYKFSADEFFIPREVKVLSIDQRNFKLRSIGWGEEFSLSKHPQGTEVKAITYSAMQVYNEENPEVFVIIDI
Put plainly: guanylylation of RTCB, intact-protein LC-MS. Type of series: biochemical. The following applies: covalent GMP adduct on RTCB His428, 2.5 mM MnCl2, 0.5 mM GTP, 20 mM HEPES pH 8.0, 25 °C.

The target of series [3] is T3, RTCB (human, UniProt Q9Y3I0 1-505).
T3 construct: human RTCB (UniProt Q9Y3I0); inserted into the 438B plasmid (N-terminal hexahistidine tag, TEV site); the tag is removed by TEV in either case; also called apo-RTCB; un-guanylylated RTCB; source: Sf9 insect cells (baculovirus), purified (Ni-NTA, TEV cleavage, SEC); not shown: His6, N-terminal, cleaved
T3 sequence: T1 sequence (Q9Y3I0 1-505 partner)
Kind of series: cryo-EM structure; 100 µM RTCB mixed 1:1 with 100 µM PYROXD1 in 20 mM HEPES pH 8.0, 150 mM NaCl, 0.5 mM TCEP, 5 mM MgCl2, 0.5 mM NADH; SEC; single-particle cryo-EM. The following applies: both partners purified.

Substrate in series [4]: NC(=O)C1=CN([C@@H]2O[C@H](COP(=O)(O)OP(=O)(O)OC[C@H]3O[C@@H](n4cnc5c(N)ncnc54)[C@H](O)[C@@H]3O)[C@@H](O)[C@H]2O)C=CC1
Kind of series: purified protein. Type of series: biochemical, Homo sapiens. The conditions noted are these: aerobic (O2 as acceptor), 20 mM Tris-HCl pH 8.0, 150 mM KCl, 0.05% Tween-20, 22 °C.

In series [5] the target is T4, StrepII–GFP–RTCB (human, UniProt Q9Y3I0 1-505).
T4 construct: human RTCB (UniProt Q9Y3I0), catalytic subunit of the tRNA ligase complex; inserted into the 438-Rgfp plasmid; a TEV site lies between GFP and RTCB; In the dissociation assay it is called 2× StrepII–GFP–RTCB; also called immobilized RTCB; 2× StrepII–GFP–RTCB; source: Sf9 insect cells (baculovirus), purified (Strep-Tactin, SEC); not shown: StrepII, N-terminal, kept; super folder green fluorescent …
T4 sequence: T1 sequence (Q9Y3I0 1-505 partner)
Put plainly: pull-down; dissociation kinetics: complex formed with 0.5 mM NADH and 5 mM MgCl2, held on Strep-Tactin beads via StrepII–GFP–RTCB, NADH and unbound PYROXD1 washed out, bound PYROXD1 followed over time under aerobic conditions; Coomassie Blue. The conditions noted are these: both partners purified.

Series [6] addresses T4, StrepII–GFP–RTCB. Kind of series: pull-down; StrepII–GFP–RTCB (0.2 nmol) immobilised on MagStrep type 3 XT beads, 0.4 nmol PYROXD1; HEPES pH 8.0, 150 mM KCl, 0.1% Tween-20, 1 mM TCEP, 0.5 mM NADH, 2.5 mM MgCl2, 2.5 mM MnCl2; 30 min at 4 °C; SDS–PAGE, Coomassie Blue. The following applies: both partners purified.

Eleven molecules from article PMC12263435, “Mechanistic basis for PYROXD1-mediated protection of the human tRNA ligase complex against oxidative inactivation” (Nature Structural & Molecular Biology, 2025) can be followed below.

In general, stoichiometry N refers to the number of molecules, sites or subunits per partner or assembly. A word on the Km: it is the substrate concentration at which the rate is half of its maximum.

Numbering of substitutions follows the chain as printed. Names and notes keep the numbering of the source.

As to `Cc1cc2c(cc1C)N(C[C@H](O)[C@H](O)[C@H](O)COP(=O)(O)OP(=O)(O)OC[C@H]1O[C@@H](n3cnc4c(N)ncnc43)[C@H](O)[C@@H]1O)c1[nH]c(=O)[nH]c(=O)c1N2` [FADH^−], the “cryo-EM structure, 3.3 Å” value in series [1] (redox state FADH- inferred) is on record as “PYROXD1 coordinates FADH^− with residues including Gly18, Ala21, Thr42, Ala43”.

Take `Nc1nc2c(ncn2[C@@H]2O[C@H](COP(=O)(O)OP(=O)(O)OP(=O)(O)O)[C@@H](O)[C@H]2O)c(=O)[nH]1` [GTP]: the “guanylylation of RTCB, intact-protein LC-MS” value in series [2] was “generating a mixture of guanylylated and un-guanylylated RTCB”.

Take `NC(=O)c1ccc[n+]([C@@H]2O[C@H](COP(=O)(O)OP(=O)(O)OC[C@H]3O[C@@H](n4cnc5c(N)ncnc54)[C@H](O)[C@@H]3O)[C@@H](O)[C@H]2O)c1` [NAD^+]: in series [1], the “cryo-EM structure, 3.3 Å” value is “NAD^+ interacts with residues Gly157, Ile158, Arg374, His410 and Thr412”.

B1: PYROXD1 (enzyme, human)
chain: T1 sequence (Q8WU10 1-500)
notes: human PYROXD1 (UniProt Q8WU10), amplified from HeLa cDNA, in pGEX-6P-1; FAD-containing flavoprotein; also called wild-type PYROXD1; WT; source: E. coli BL21(DE3), purified (Glutathione Sepharose, 3C cleavage, SEC); not shown: GST, N-terminal, cleaved
Regarding B1, in series [3], the “stoichiometry N” value was 1. For the same molecule, the Michaelis-Menten constant (Km) in series [4] was found to be 611.0 ± 98.3 µM. In addition, the “half-life of the complex upon NADH removal” value in series [5] is ~2 min.

B2: PYROXD1 (Homo sapiens; W239A) (protein)
chain: T1 sequence (Q8WU10 1-500) with W239A
notes: full-length from HeLa cDNA, N-terminal GST cut off with 3C protease; E. coli BL21(DE3); FAD-containing
With B2, in series [4] (text prints W293A, figure legend W239A), the Km is recorded as 1472.1 ± 105.0 µM.

B3: PYROXD1 D497A (enzyme, human)
chain: T1 sequence (Q8WU10 1-500) with D497A
notes: human PYROXD1 (UniProt Q8WU10) with D497A; source: E. coli BL21(DE3), purified (Glutathione Sepharose, 3C cleavage, SEC); not shown: GST, N-terminal, cleaved
Take B3: the binding result in series [6] is “binds”.

B4: PYROXD1 F499A (enzyme, human)
chain: T1 sequence (Q8WU10 1-500) with F499A
notes: human PYROXD1 (UniProt Q8WU10) with F499A; source: E. coli BL21(DE3), purified (Glutathione Sepharose, 3C cleavage, SEC); not shown: GST, N-terminal, cleaved
Take B4: the binding result in series [6] is given as “binds”.

B5: PYROXD1 Y498A (enzyme, human)
chain: T1 sequence (Q8WU10 1-500) with Y498A
notes: human PYROXD1 (UniProt Q8WU10) with Y498A; source: E. coli BL21(DE3), purified (Glutathione Sepharose, 3C cleavage, SEC); not shown: GST, N-terminal, cleaved
With B5, the binding result in series [6] is listed as “binds”.

B6: PYROXD1 D500A (enzyme, human)
chain: T1 sequence (Q8WU10 1-500) with D500A
notes: human PYROXD1 (UniProt Q8WU10) with D500A; source: E. coli BL21(DE3), purified (Glutathione Sepharose, 3C cleavage, SEC); not shown: GST, N-terminal, cleaved
As for B6, the binding result in series [6] is recorded as “binds”.

B7: PYROXD1 ∆500 (domain or fragment, human, UniProt Q8WU10 1-499, looked up)
chain: MEAARPPPTAGKFVVVGGGIAGVTCAEQLATHFPSEDILLVTASPVIKAVTNFKQISKILEEFDVEEQSSTMLGKRFPNIKVIESGVKQLKSEEHCIVTEDGNQHVYKKLCLCAGAKPKLICEGNPYVLGIRDTDSAQEFQKQLTKAKRIMIIGNGGIALELVYEIEGCEVIWAIKDKAIGNTFFDAGAAEFLTSKLIAEKSEAKIAHKRTRYTTEGRKKEARSKSKADNVGSALGPDWHEGLNLKGTKEFSHKIHLETMCEVKKIYLQDEFRILKKKSFTFPRDHKSVTADTEMWPVYVELTNEKIYGCDFIVSATGVTPNVEPFLHGNSFDLGEDGGLKVDDHMHTSLPDIYAAGDICTTSWQLSPVWQQMRLWTQARQMGWYAAKCMAAASSGDSIDMDFSFELFAHVTKFFNYKVVLLGKYNAQGLGSDHELMLRCTKGREYIKVVMQNGRMMGAVLIGETDLEETFENLILNQMNLSSYGEDLLDPNIDIEDYF
notes: human PYROXD1 (UniProt Q8WU10), C-terminal truncation ∆500 (lacks the C-terminal residue Asp500); source: E. coli BL21(DE3), purified (Glutathione Sepharose, 3C cleavage, SEC); not shown: GST, N-terminal, cleaved
As to B7, the binding result in series [6] is on record as “binds”.

B8: PYROXD1 ∆E496 (enzyme, human)
chain: B7 chain with E496D, D497Y, Y498F, F499D
notes: source: E. coli BL21(DE3), purified (Glutathione Sepharose, 3C cleavage, SEC); not shown: GST, N-terminal, cleaved
As to B8, in series [6], the binding result was “binds”.
